Results from the supplement of paper PMC9233669.
Variants at the floor of the assay were thinned out.

Tests used:
biotinyl-Trp-oxazolone = assay: self-aminoacylation, catalytic enhancement (BWO) (fold over background); higher = more active; k-Seq, kA / k0A0; sequences stand for … in GGGAAUGGAUCCACAUCUACGAAUUC…UUCACUGCAGACUUGACGAAGCUG
Method in brief: (§1)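 The uncatalyzed rate is the low-activity peak of a bimodal Gaussian fit, and catalytic enhancement is median kA divided by it. The kA values came from pseudo-first-order fits, with 1000 bootstraps, of per-sequence fraction reacted measured by streptavidin capture, triplicate qPCR and Illumina sequencing. Mutagenized RNA pools with a 21-nt variable region (0.43 μM) were reacted with each biotinyl-aminoacyl-oxazolone at 2–1250 μM in 50 μL HEPES/NaCl/KCl/MgCl2/CaCl2 buffer with 5% acetonitrile, pH 6.9–7.0, for 90 minutes at room temperature.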

biotinyl-Ile-oxazolone = assay: self-aminoacylation, catalytic enhancement (BIO) (fold over background); higher = more active; k-Seq, kA / k0A0; sequences stand for … in GGGAAUGGAUCCACAUCUACGAAUUC…UUCACUGCAGACUUGACGAAGCUG
Method in brief: as §1

biotinyl-Val-oxazolone = assay: self-aminoacylation, catalytic enhancement (BVO) (fold over background); higher = more active; k-Seq, kA / k0A0; sequences stand for … in GGGAAUGGAUCCACAUCUACGAAUUC…UUCACUGCAGACUUGACGAAGCUG
Method in brief: as §1

biotinyl-Leu-oxazolone = assay: self-aminoacylation, catalytic enhancement (BLO) (fold over background); higher = more active; k-Seq, kA / k0A0; sequences stand for … in GGGAAUGGAUCCACAUCUACGAAUUC…UUCACUGCAGACUUGACGAAGCUG
Method in brief: as §1

biotinyl-Met-oxazolone = assay: self-aminoacylation, catalytic enhancement (BMO) (fold over background); higher = more active; k-Seq, kA / k0A0; sequences stand for … in GGGAAUGGAUCCACAUCUACGAAUUC…UUCACUGCAGACUUGACGAAGCUG
Method in brief: as §1

biotinyl-Phe-oxazolone = assay: self-aminoacylation, catalytic enhancement (BFO) (fold over background); higher = more active; k-Seq, kA / k0A0; sequences stand for … in GGGAAUGGAUCCACAUCUACGAAUUC…UUCACUGCAGACUUGACGAAGCUG
Method in brief: as §1

Sequence | self-aminoacylation (biotinyl-Trp-oxazolone) | self-aminoacylation (biotinyl-Ile-oxazolone) | self-aminoacylation (biotinyl-Val-oxazolone) | self-aminoacylation (biotinyl-Leu-oxazolone) | self-aminoacylation (biotinyl-Met-oxazolone) | self-aminoacylation (biotinyl-Phe-oxazolone)
AAGUUUGCCAAUAGUCACAAG [Fam3.1 aminoacylation ribozyme variant] | 1.04 | 1.55 | 1.23 | 1.07 | 1.56 | 1.1
AUUGCCCUGGUCACCGAGUGA [Fam2.1 aminoacylation ribozyme variant] | 9.72 | 3.77 | 4.68 | 10.8 | 9.41 | 70
CUACUUCAAACGAUCGAUCUG [Fam1A.1 aminoacylation ribozyme variant] | 0.354 | 0.55 | 0.584 | 0.485 | 0.47 | 0.425
GACUUUGCUAAUAGUCGCAAG [Fam3.1 aminoacylation ribozyme variant] | 1.97 | 1.74 | 1.72 | 1.85 | 2.11 | 2.88
CCACACUUCGAGCAAACGGUC [Fam1B.1 aminoacylation ribozyme variant] | 0.57 | 0.678 | 0.655 | 0.632 | 0.663 | 0.648
AUUACCCUGGUCGUCAAGUGA [Fam2.1 aminoacylation ribozyme variant] | 0.394 | 0.713 | 0.836 | 0.821 | 0.773 | 0.371
AAGUUUGGUAAUAGUCGCUAG [Fam3.1 aminoacylation ribozyme variant] | 1.47 | 1.18 | 0.958 | 0.996 | 1.05 | 1.64
AUUACCCUUGUCAUCGCGUGA [Fam2.1 aminoacylation ribozyme variant] | 14.3 | 5.26 | 5.9 | 13.6 | 10.7 | 85.5
AGUAACCUAGGUCAUCGGGUG [Fam2.2 aminoacylation ribozyme variant] | 7.15 | 4.57 | 3.63 | 6.07 | 5.37 | 33.3
CUACUUCAAACAAUCAGUCUU [Fam1A.1 aminoacylation ribozyme variant] | 4.96 | 0.938 | 0.942 | 0.935 | 0.854 | 13.2
AAGUUUGCUGAUACUCGCAAG [Fam3.1 aminoacylation ribozyme variant] | 1.07 | 1.11 | 0.897 | 0.885 | 0.744 | 0.915
AUUACCCCGGUCAUGGAGUGA [Fam2.1 aminoacylation ribozyme variant] | 6.2 | 2.92 | 3.07 | 5.28 | 4.97 | 22.6
